Article PMC2799554

Target: Moraxella immunoglobulin (Ig) D binding protein (MID) of M. catarrhalis BBH18, on whole bacteria and on their outer membrane vesicles (OMV) (Moraxella catarrhalis)
Assay: flow cytometry on cells

## human IgD, soluble, from serum (natural protein)
  percent reduction of bacterial binding to B cells at 150 µg/ml IgD: 40%
